From paper PMC8673607, “ENAP1 retrains seed germination via H3K9 acetylation mediated positive feedback regulation of ABI5” (PLoS Genetics, 2021)

Biological target: T1, His-ABI5 (Arabidopsis, UniProt Q9SJN0 1-442)
T1 construct: ABI5, Arabidopsis, AT2G36270; CDS ligated to pET28a; source: E. coli, purified (Ni-NTA agarose)
T1 sequence (looked up): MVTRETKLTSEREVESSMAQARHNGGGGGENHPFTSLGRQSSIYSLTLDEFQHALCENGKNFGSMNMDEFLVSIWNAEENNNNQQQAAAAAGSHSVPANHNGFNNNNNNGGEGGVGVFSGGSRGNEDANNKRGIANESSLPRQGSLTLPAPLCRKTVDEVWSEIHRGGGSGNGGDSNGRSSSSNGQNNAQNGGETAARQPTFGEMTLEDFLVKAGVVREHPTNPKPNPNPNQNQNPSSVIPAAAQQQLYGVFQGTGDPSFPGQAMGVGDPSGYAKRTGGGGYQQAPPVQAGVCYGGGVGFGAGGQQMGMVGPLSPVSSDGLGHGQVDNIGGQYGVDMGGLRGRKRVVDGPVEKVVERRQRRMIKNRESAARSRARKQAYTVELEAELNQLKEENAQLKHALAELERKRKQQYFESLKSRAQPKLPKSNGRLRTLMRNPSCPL
Assay: pull-down; His-ABI5 purified with Ni-NTA agarose incubated with dialyzed MBP fused proteins 1h at 4°C; column buffer 20 mM Tris-HCl pH 7.4, 0.2 M NaCl, 1 mM EDTA; blots with anti-His and anti-MBP
Conditions: both partners purified

- binding result: binds
B1: MBP-ENAP1 (natural protein, Arabidopsis, UniProt Q8VZI9 1-249, looked up)
chain: METTPETQSKTHRLPAGREDWWSEDATATLIEAWGDRYVNLNRGNLRQNDWKEVADAVNSSHGNGRPKTDVQCKNRIDTLKKKYKTEKAKPLSNWCFFDRLDFLIGPVMKKSSGAVVKSALMNPNLNPTGSKSTGSSLDDDDDDDDDDEEDDDDAGDWGFVVRKHRKVEDVDSSEGSAFRELARSILKLGEAFERIEGKKQQMMIELEKQRMEVAKELELQRMNMLMEMQLELEKSKLGKRRAASGKKL
notes: ENAP1, Arabidopsis, At3G11100; CDS ligated to pVP13 (Gateway vector, His tag removed); source: E. coli, purified (amylose resin, eluted with maltose, dialyzed)
